# Assay results from US20140105889A1 (published 2014).
# Positions count from the first letter of the chain named. Numbers in names are those of the source.
# T1: human FcγRIIb (human, UniProt P31994 43-217, limits assumed)
# T1 construct: also called FcγIIB; hFcgRIIb
# T1 sequence: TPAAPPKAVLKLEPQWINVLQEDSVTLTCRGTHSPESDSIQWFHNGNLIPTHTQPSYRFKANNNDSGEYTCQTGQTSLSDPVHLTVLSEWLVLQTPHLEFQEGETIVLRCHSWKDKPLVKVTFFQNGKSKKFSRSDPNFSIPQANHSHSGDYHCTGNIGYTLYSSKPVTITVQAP
# T2: human FcγRIIa type R (human, UniProt P12318 36-217)
# T2 construct: also called FcγRIIaR; FcγRIIa(R)
# T2 chain: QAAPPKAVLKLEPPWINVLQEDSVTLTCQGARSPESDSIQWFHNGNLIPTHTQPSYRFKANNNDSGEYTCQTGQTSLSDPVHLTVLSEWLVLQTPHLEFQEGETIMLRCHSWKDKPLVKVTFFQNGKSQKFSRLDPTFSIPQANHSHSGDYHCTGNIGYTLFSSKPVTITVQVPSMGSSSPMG
# T3: FcγRIIb (human, UniProt P31994 43-217, limits assumed)
# T3 construct: Soluble analyte in Biacore; also called FcgRIIb; FcγIIB
# T3 sequence: T1 sequence
# T4: FcγRIIa type H (human, UniProt P12318 36-217)
# T4 construct: Soluble analyte in Biacore; also called FcγRIIaH; FcγRIIa(H)
# T4 sequence: T2 chain with R133H
# B1: IL6R-BF648/IL6R-L (antibody, human IgG1)
# heavy: not shown
# light: DIQMTQSPSSLSASVGDRVTITCRASQDISSYLNWYQQKPGKAPKLLIYYTSRLHSGVPSRFSGSGSGTDFTFTISSLQPEDIATYYCQQGNTLPYTFGQGTKVEIK
# notes: IL6R-B3 with P238D; copies: 2 + 2
# B2: IL6R-BP209/IL6R-L (antibody, human IgG1)
# heavy: QVQLQESGPGLVKPSETLSLTCAVSGHSISHDHAWSWVRQPPGEGLEWIGFISYSGITNYNPSLQGRVTISRDNSKNTLYLQMNSLRAEDTAVYYCARSLARTTAMDYWGEGTLVTVSSASTKGPSVFPLAPSSKSTSGGTAALGCLVKDYFPEPVTVSWNSGALTSGVHTFPAVLQSSGLYSLSSVVTVPSSSLGTQTYICNVNHKPSNTKVDKKVEPKSCDKTHTCPPCPAPELLGDDSVFLFPPKPKDTLMISRTPEVTCVVVDVSDEDGEVKFNWYVDGVEVHNAKTKPREEQYNSTYRVVSVLTVLHQDWLNGKEYKCKVSNAALPRPIEKTISKAKGQPREPQVYTLPPSRDELTKNQVSLTCLVKGFYPSDIAVEWESNGQPENNYKTTPPVLDSDGSFFLYSKLTVDKSRWQQGNVFSCSVMHEALHNHYTQESLSLSP
# light: B1 light
# notes: Anti-human IL-6 receptor IgG1 Fc variant
# B3: IL6R-BP129/IL6R-L (antibody, human IgG1)
# heavy: B2 heavy with E235D, D239G, D270H, G273P, Y298D, A328K, R332K
# light: B1 light
# notes: copies: 2 + 2
# B4: IL6R-BP205/IL6R-L (antibody, human IgG1)
# heavy: B2 heavy with E235D, D239G, D270H, Y298D, A328K
# light: B1 light
# notes: as for B2
# B5: IL6R-BP208/IL6R-L (antibody, human IgG1)
# heavy: B2 heavy with E235D, A328K
# light: B1 light
# notes: as for B2
# B6: IL6R-BP213/IL6R-L (antibody, human IgG1)
# heavy: B2 heavy with E235D, D239G, A328K
# light: B1 light
# notes: as for B2
# B7: IL6R-BP082/IL6R-L (antibody, human IgG1)
# heavy: B2 heavy with E235D, D239G, D270H, G273P, A328K, R332K
# light: B1 light
# notes: copies: 2 + 2
# B8: IL6R-BP212/IL6R-L (antibody, human IgG1)
# heavy: B2 heavy with E235D, D239G, Y298D, A328K
# light: B1 light
# notes: as for B2
# B9: IgG1-F276 (antibody, name in EU numbering)
# heavy: QVQLQESGPGLVKPSETLSLTCAVSGHSISHDHAWSWVRQPPGEGLEWIGFISYSGITNYNPSLQGRVTISRDNSKNTLYLQMNSLRAEDTAVYYCARSLARTTAMDYWGEGTLVTVSSASTKGPSVFPLAPSSKSTSGGTAALGCLVKDYFPEPVTVSWNSGALTSGVHTFPAVLQSSGLYSLSSVVTVPSSSLGTQTYICNVNHKPSNTKVDKKVEPKSCDKTHTCPPCPAPELLGGPSVFLFPPKPKDTLYISRTPEVTCVVVDVSHEFPEVKFNWYVDGVEVHNAKTKPREEQYNSTYRVVSVLTPLHQDWLNGKEYKCKVSNKALPAPIEKTISKAKGQPREPQVYTLPPSRDELTKNQVSLTCLVKGFYPSDIAVEWASNGQPENNYKTTPPVLDSDGSFFLYSKLTVDKSRWQQGNVFSCSVMHEALHYHYTQKSLSLSP
# light: not shown
# notes: Fc variant of VH3-IgG1; copies: 2 + 2
# B10: IgG1-F928 (antibody, name in EU numbering)
# heavy: B9 heavy with F272D, T309Q, P310V, Q313A, A384E, Y438I
# light: not shown
# B11: IgG1-F398 (antibody, name in EU numbering)
# heavy: B9 heavy with S241K, N288E, T309Q, Q313A, A384E, M430I
# light: not shown
# notes: as for B9
# B12: IgG1-F393 (antibody, name in EU numbering)
# heavy: B9 heavy with S241K, F272D, N288E, A384E
# light: not shown
# notes: as for B9
# B13: IgG1-F936 (antibody, name in EU numbering)
# heavy: B9 heavy with G239R, P240D, T252V, F272D, P310V, A384E
# light: not shown
# B14: IgG1-F434 (antibody, name in EU numbering)
# heavy: B9 heavy with Y254M, P259V, F272D, T309Q, P310V, Q313A, N327G, A384E, M430Y
# light: not shown
# notes: as for B9
# B15: IgG1-F445 (antibody, name in EU numbering)
# heavy: B9 heavy with Y254M, P259A, F272D, T309Q, P310V, Q313H, A384E, M430L
# light: not shown
# notes: copies: 2 + 2
# B16: IgG1-F281 (antibody, name in EU numbering)
# heavy: B9 heavy with F272D, M430F
# light: not shown
# notes: as for B9
# B17: IgG1-F941 (antibody, name in EU numbering)
# heavy: B9 heavy with F272D, N288E, T309Q, P310V, Q313A, A384E, Y438V
# light: not shown
# B18: IgG1-F462 (antibody, name in EU numbering)
# heavy: B9 heavy with Y254M, P259A, F272D, N327G, A384E, M430L
# light: not shown
# notes: copies: 2 + 2
# B19: IgG1-F919 (antibody, name in EU numbering)
# heavy: B9 heavy with F272D, D282G, P310V, A384E, N386A, N391A
# light: not shown
# B20: IgG1-F419 (antibody, name in EU numbering)
# heavy: B9 heavy with F272D, T309A, P310V, Q313H, K362H, A384E
# light: not shown
# notes: as for B9
# B21: IgG1-F450 (antibody, name in EU numbering)
# heavy: B9 heavy with S241K, F272D, T309P, P310V, L311E, N327G, A384E, M430Y
# light: not shown
# notes: copies: 2 + 2
# B22: IgG1-F421 (antibody, name in EU numbering)
# heavy: B9 heavy with F272D, T309A, P310V, Q313H, A384E, M430A
# light: not shown
# notes: as for B9
# B23: IgG1-F329 (antibody, name in EU numbering)
# heavy: B9 heavy with S241K, N288E, A384E
# light: not shown
# notes: as for B9
# B24: IgG1-F357 (antibody, name in EU numbering)
# heavy: B9 heavy with S241K, T258E, N327G, A384E, M430I
# light: not shown
# notes: as for B9
# B25: IgG1-F327 (antibody, name in EU numbering)
# heavy: B9 heavy with S241K, T258E, T309Q, P310V, Q313A, A384E
# light: not shown
# notes: as for B9
# B26: IgG1-F382 (antibody, name in EU numbering)
# heavy: B9 heavy with Y254M, P259V, F272D, V307A, T309A, P310V, A384E, M430L
# light: not shown
# notes: as for B9
# Columns and labels:
# human FcγRIIb [1] = target: T1, human FcγRIIb; assay: ratio of this variant's SPR KD for FcγRIIaR to its KD for FcγRIIb
# human FcγRIIa type R = target: T2, human FcγRIIa type R; assay: SPR (Biacore), captured antibody, FcγR as analyte, 25 C
# human FcγRIIb [2] = target: T1, human FcγRIIb; assay: ratio of this variant's SPR KD for FcγRIIaH to its KD for FcγRIIb
# FcγRIIb [3] = target: T3, FcγRIIb; assay: SPR (Biacore); ratio against the parent IL6R-B3/IL6R-L
# FcγRIIb [4] = target: T3, FcγRIIb; assay: SPR (Biacore), antibody captured on chip, FcγR as analyte, method of Example 14
# FcγRIIIa type V = target: T5, FcγRIIIa type V (human, UniProt P08637 17-208, limits assumed); assay: as above
# T5 construct: Soluble analyte in Biacore; also called FcγRIIIaV; FcγRIIIa(V)
# human FcγRIIb [5] = target: T1, human FcγRIIb; assay: SPR KD for FcγRIIb of parent IL6R-B3/IL6R-L divided by that of this variant
# FcγRIIa type H = target: T4, FcγRIIa type H; assay: SPR (Biacore), antibody captured on chip, FcγR as analyte, method of Example 14
# [6] = target: T6, human FcRn (soluble human FcRn complexed with beta2-microglobulin) (human, UniProt P61769 21-119); assay: Biacore SPR, antibody captured on Protein L, human FcRn analyte, pH 7.0
# T6 construct: Soluble human FcRn complexed with beta2-microglobulin; also called hFcRn
# [7] = target: T7, human FcRn (soluble human FcRn complexed with beta2-microglobulin) (human, UniProt P61769 21-119); assay: SPR (Biacore), pH 7.0, 25 C, antibody captured by Protein L, human FcRn as analyte
# T7 construct: also called hFcRn
# [8] = target: T6, human FcRn (soluble human FcRn …); assay: Biacore SPR, antibody captured on Protein L, human FcRn analyte, pH 7.0; remark: listed apart in the source
# [9] = target: T6, human FcRn (soluble human FcRn …); assay: as above; remark: listed apart in the source
# [10] = target: T8, human FcRn (soluble human FcRn complexed with β2-microglobulin) (human, UniProt P61769 21-119); assay: SPR (Biacore), Protein L capture, hFcRn analyte, pH 7.0
# T8 construct: also called hFcRn
# [11] = target: T6, human FcRn (soluble human FcRn …); assay: Biacore SPR, antibody captured on Protein L, human FcRn analyte, pH 7.0; remark: listed apart in the source
# T8 sequence (chain, as listed by the source limits assumed, chain 1 of 2): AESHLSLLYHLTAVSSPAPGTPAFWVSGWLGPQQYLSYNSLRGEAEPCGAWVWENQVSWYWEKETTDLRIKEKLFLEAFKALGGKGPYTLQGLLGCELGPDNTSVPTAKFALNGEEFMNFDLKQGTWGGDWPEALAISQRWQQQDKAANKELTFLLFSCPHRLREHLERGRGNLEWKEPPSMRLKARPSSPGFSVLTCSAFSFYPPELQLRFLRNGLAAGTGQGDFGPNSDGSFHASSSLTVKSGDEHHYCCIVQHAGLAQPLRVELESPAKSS
# T8 sequence (P61769 21-119 limits assumed, chain 2 of 2): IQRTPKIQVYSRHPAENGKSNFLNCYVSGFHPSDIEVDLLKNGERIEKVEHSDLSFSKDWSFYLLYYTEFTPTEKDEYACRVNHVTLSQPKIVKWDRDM
# T5 sequence (P08637 other isoform, or with tags, fused parts or gaps limits assumed): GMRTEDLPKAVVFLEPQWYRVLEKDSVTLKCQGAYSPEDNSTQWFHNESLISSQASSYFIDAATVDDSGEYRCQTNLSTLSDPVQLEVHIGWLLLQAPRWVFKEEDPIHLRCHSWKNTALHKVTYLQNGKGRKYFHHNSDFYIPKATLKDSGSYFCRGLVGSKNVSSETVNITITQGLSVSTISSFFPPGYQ
binder,measurement,setting,value
B1,KD (IIaR)/KD (IIb),human FcγRIIb [1],13
same,Kd,human FcγRIIa type R,1500 nM
same,KD (IIaH)/KD (IIb),human FcγRIIb [2],33.9
B2,KD(IIb) of the parent polypeptide/KD(IIb) of the altered polypeptide,FcγRIIb [3],80.4 fold
same,Kd,FcγRIIb [4],5100 nM
same,Kd,FcγRIIIa type V,41 µM
B3,KD (IIaR)/KD (IIb),human FcγRIIb [1],29.3
same,KD(IIb) of the parent polypeptide/KD(IIb) of the altered polypeptide,human FcγRIIb [5],8
same,Kd,human FcγRIIa type R,1500 nM
same,KD (IIaH)/KD (IIb),human FcγRIIb [2],77.5
B4,Kd,FcγRIIIa type V,65 µM
same,Kd,FcγRIIa type H,26 µM
B5,Kd,FcγRIIIa type V,55 µM
same,Kd,FcγRIIa type H,8.3 µM
B6,KD(IIb) of the parent polypeptide/KD(IIb) of the altered polypeptide,FcγRIIb [3],17.5 fold
same,Kd,FcγRIIb [4],160 nM
same,Kd,FcγRIIIa type V,63 µM
B7,KD (IIaR)/KD (IIb),human FcγRIIb [1],22.5
same,KD(IIb) of the parent polypeptide/KD(IIb) of the altered polypeptide,human FcγRIIb [5],5.6
same,Kd,human FcγRIIa type R,1200 nM
same,KD (IIaH)/KD (IIb),human FcγRIIb [2],69
B8,KD(IIb) of the parent polypeptide/KD(IIb) of the altered polypeptide,FcγRIIb [3],16.7 fold
same,Kd,FcγRIIa type H,2.2 µM
B9,Kd,[6],41 nM
B10,Kd,[7],29 nM
B11,Kd,[8],4.4 nM
B12,Kd,[8],12 nM
B13,Kd,[7],320 nM
B14,Kd,[9],20 nM
B15,Kd,[10],62 nM
B16,Kd,[6],92 nM
B17,Kd,[7],12 nM
B18,Kd,[10],85 nM
B19,Kd,[7],330 nM
B20,Kd,[9],160 nM
B21,Kd,[10],520 nM
B22,Kd,[9],130 nM
B23,Kd,[11],12 nM
B24,Kd,[11],16 nM
B25,Kd,[11],65 nM
B26,Kd,[8],87 nM
